Measurements from paper PMC1277818, “Substrate specificity analysis of protein kinase complex Dbf2-Mob1 by peptide library and proteome array screening” (BMC Biochemistry, 2005).

T1: FHHDbf2-H6Mob1TM9 (Saccharomyces cerevisiae, UniProt P22204+P40484)
T1 construct: made in house; host or cells: Hi5 insect cells (baculovirus)
T1 sequence (P22204 1-572): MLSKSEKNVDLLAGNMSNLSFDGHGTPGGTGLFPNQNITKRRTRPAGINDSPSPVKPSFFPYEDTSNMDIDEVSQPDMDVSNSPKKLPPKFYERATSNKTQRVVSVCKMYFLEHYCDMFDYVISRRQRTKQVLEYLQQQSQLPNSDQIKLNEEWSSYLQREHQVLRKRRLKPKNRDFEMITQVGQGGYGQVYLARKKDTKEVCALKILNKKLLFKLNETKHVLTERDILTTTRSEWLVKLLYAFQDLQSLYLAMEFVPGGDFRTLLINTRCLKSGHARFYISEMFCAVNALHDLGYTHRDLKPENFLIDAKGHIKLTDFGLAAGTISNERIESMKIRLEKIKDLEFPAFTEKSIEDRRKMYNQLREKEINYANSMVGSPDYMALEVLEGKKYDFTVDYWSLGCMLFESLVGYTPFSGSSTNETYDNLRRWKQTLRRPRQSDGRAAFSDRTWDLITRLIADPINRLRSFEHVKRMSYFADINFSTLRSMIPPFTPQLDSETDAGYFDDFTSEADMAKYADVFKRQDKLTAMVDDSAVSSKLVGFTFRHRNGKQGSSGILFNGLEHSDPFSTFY
T1 sequence (P40484 1-314 partner): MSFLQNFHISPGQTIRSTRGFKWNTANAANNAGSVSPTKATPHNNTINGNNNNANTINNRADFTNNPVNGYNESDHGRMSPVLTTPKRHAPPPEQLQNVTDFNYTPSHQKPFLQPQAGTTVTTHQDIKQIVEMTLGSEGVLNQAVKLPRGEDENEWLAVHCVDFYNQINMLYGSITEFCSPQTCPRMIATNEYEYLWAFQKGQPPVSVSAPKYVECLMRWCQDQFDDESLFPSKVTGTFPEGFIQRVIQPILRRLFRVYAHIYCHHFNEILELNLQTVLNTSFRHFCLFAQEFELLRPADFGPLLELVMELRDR

B1: YLL008W: GST fusion yeast protein on proteome chip (protein, UniProt P32892 1-752, looked up)
ATP-dependent RNA helicase …: MVVGTKKYSNLDFVPTISDSEDDVPILDSSDDEKVEAKKTTKKRKGKNNKKKVSEGDNLDEDVHEDLDAGFKFDLDADDTTSNFQGWNFLAEGESNKDDAEAFVKKDVDLDKIIRRKGGLVKMAHIDSKQEEETEKEKVEKENDSDDEELAMDGFGMGAPMNNGDENQSEEEEEEEEKEEEEEEEEEQEEMTLEKGGKDDEIDEEDDSEEAKADFYAPETEGDEAKKQMYENFNSLSLSRPVLKGLASLGYVKPSPIQSATIPIALLGKDIIAGAVTGSGKTAAFMIPIIERLLYKPAKIASTRVIVLLPTRELAIQVADVGKQIARFVSGITFGLAVGGLNLRQQEQMLKSRPDIVIATPGRFIDHIRNSASFNVDSVEILVMDEADRMLEEGFQDELNEIMGLLPSNRQNLLFSATMNSKIKSLVSLSLKKPVRIMIDPPKKAATKLTQEFVRIRKRDHLKPALLFNLIRKLDPTGQKRIVVFVARKETAHRLRIIMGLLGMSVGELHGSLTQEQRLDSVNKFKNLEVPVLICTDLASRGLDIPKIEVVINYDMPKSYEIYLHRVGRTARAGREGRSVTFVGESSQDRSIVRAAIKSVEENKSLTQGKALGRNVDWVQIEETNKLVESMNDTIEDILVEEKEEKEILRAEMQLRKGENMLKHKKEIQARPRRTWFQSESDKKNSKVLGALSRNKKVTNSKKRKREEAKADGNGARSYRKTKTDRIADQERTFKKQKSTNSNKKKGFKSRR
modifications: GST tag
notes: GST fusion yeast protein on proteome chip
B2: YFR033C: GST fusion yeast protein on proteome chip (protein, UniProt P00127 1-147, looked up)
Cytochrome b-c1 complex …: MGMLELVGEYWEQLKITVVPVVAAAEDDDNEQHEEKAAEGEEKEEENGDEDEDEDEDEDDDDDDDEDEEEEEEVTDQLEDLREHFKNTEEGKALVHHYEECAERVKIQQQQPGYADLEHKEDCVEEFFHLQHYLDTATAPRLFDKLK
modifications: GST fusion
notes: as for B1
B3: YBL024W: GST fusion yeast protein on proteome chip (protein, UniProt P38205 1-684, looked up)
Multisite-specific …: MARRKNFKKGNKKTFGARDDSRAQKNWSELVKENEKWEKYYKTLALFPEDQWEEFKKTCQAPLPLTFRITGSRKHAGEVLNLFKERHLPNLTNVEFEGEKIKAPVELPWYPDHLAWQLDVPKTVIRKNEQFAKTQRFLVVENAVGNISRQEAVSMIPPIVLEVKPHHTVLDMCAAPGSKTAQLIEALHKDTDEPSGFVVANDADARRSHMLVHQLKRLNSANLMVVNHDAQFFPRIRLHGNSNNKNDVLKFDRILCDVPCSGDGTMRKNVNVWKDWNTQAGLGLHAVQLNILNRGLHLLKNNGRLVYSTCSLNPIENEAVVAEALRKWGDKIRLVNCDDKLPGLIRSKGVSKWPVYDRNLTEKTKGDEGTLDSFFSPSEEEASKFNLQNCMRVYPHQQNTGGFFITVFEKVEDSTEAATEKLSSETPALESEGPQTKKIKVEEVQKKERLPRDANEEPFVFVDPQHEALKVCWDFYGIDNIFDRNTCLVRNATGEPTRVVYTVCPALKDVIQANDDRLKIIYSGVKLFVSQRSDIECSWRIQSESLPIMKHHMKSNRIVEANLEMLKHLLIESFPNFDDIRSKNIDNDFVEKMTKLSSGCAFIDVSRNDPAKENLFLPVWKGNKCINLMVCKEDTHELLYRIFGIDANAKATPSAEEKEKEKETTESPAETTTGTSTEAPSAAN
modifications: GST tag
notes: as for B1
B4: YLR303W: GST fusion yeast protein on proteome chip (protein, UniProt P06106 2-444, looked up)
Homocysteine/cysteine synthase: PSHFDTVQLHAGQENPGDNAHRSRAVPIYATTSYVFENSKHGSQLFGLEVPGYVYSRFQNPTSNVLEERIAALEGGAAALAVSSGQAAQTLAIQGLAHTGDNIVSTSYLYGGTYNQFKISFKRFGIEARFVEGDNPEEFEKVFDERTKAVYLETIGNPKYNVPDFEKIVAIAHKHGIPVVVDNTFGAGGYFCQPIKYGADIVTHSATKWIGGHGTTIGGIIVDSGKFPWKDYPEKFPQFSQPAEGYHGTIYNEAYGNLAYIVHVRTELLRDLGPLMNPFASFLLLQGVETLSLRAERHGENALKLAKWLEQSPYVSWVSYPGLASHSHHENAKKYLSNGFGGVLSFGVKDLPNADKETDPFKLSGAQVVDNLKLASNLANVGDAKTLVIAPYFTTHKQLNDKEKLASGVTKDLIRVSVGIEFIDDIIADFQQSFETVFAGQKP
modifications: GST tag
notes: as for B1
B5: YLR007W: GST fusion yeast protein on proteome chip (protein, UniProt Q07913 1-336, looked up)
Non-structural maintenance of …: MEVHEEQVSAPVTGDATAKYLLQYILSARGICHENALILALMRLETDASTLNTEWSIQQWVDKLNDYINAINVKLNLLGYKIIRINHGIGRNAVTLKAKQNFESFEDNTAIRAHNNDYAVLQSIVLPESNRFFVYVNLASTEETKLATRFNQNEIEFMKWAIEQFMISGETIVEGPALETSIIVKEVNRILVAATGDSNLAKWRKFSTFTVGSTNLFQFQELTATDIEDLLLRLCELKWFYRTQEGKFGIDLRCIAELEEYLTSMYNLNTCQNCHKLAIQGVRCGNESCREENEETGENSLSQIWHVDCFKHYITHVSKNCDRCGSSLITEGVYVI
modifications: GST tag
notes: as for B1
B6: YAL051W: GST fusion yeast protein on proteome chip (protein, UniProt P39720 1-1047, looked up)
Oleate-activated …: MVENSTQKAPHAGNDDNSSTKPYSEAFFLGFNNPTPGLEAEHSSTSPAPENSETHNRKRNRILFVCQACRKSKTKCDREKPECGRCVKHGLKCVYDVSKQPAPRIPSKDAIISRLEKDMFYWKDKAMKLLTEREVNESGKRSASPINTNNASGDSPDTKKQHKMEPIYEQSGNGDINNGTRNDIEINLYRSHPTMIMSKVMKREVKPLSENYIIIQDCFLKILVTSVFLDTSKNTMIPALTANANITRAQPSVANNLLKLKEMLIRQCQTEDEKNRVNEFTDRILQNTNSNRNLKIGMLLSMLYNSVGYQYLEDHCPQGGEYSDLLRNLINECEAILPSYEIIERYKNHFYEYVYPSLPFIELEIFEESLSQTIFPDPNNPSKVQIRMGSTHLRAKVENLSLLLVILKLSYMSIRFLDHSTADSSFYLSKEIIDKYPIPNDFILLSQRCLASENWCACANENIISCLLYIWSFFAFSPEEGDFFLEHPTDVISSLIMMLSTSIGLHRDPSDFPQLISPSTSDKRTLNHRRILWLSIVTVCSFEASLKGRHSVSPISLMALFLNIKDPDSLTVYMNRVRGDLSDINNHKLLRIHKFTFKRAQLALLLSDLDNLTMTYYGSFHLHSIEFIREKIEIFVEENFPIVPLKSVAQDKSDLDDMNVISEMNILSSENSSSFHNRIMNKLLMLRTSMAVFLHFETLITKDKSIFPFYKKYFMVSCMDALSLINYFNKFFNGEYRHAISSLTSFNVTKFIQLALSSTIFSLLGIILRIGLAIHMLSSEVQKLSGTTDPRIKELNTKVEKFSTLQRDLESALEGIYCSASEHLRFTYFPVFKMLALFDVIVQRMRKGELWHGIFTMIQMEQMHSRIIKTLSITLGVKLDKKDRLLEELMACNHVANFSVEDIDELNRNIKKEIQISSGLKPPVNTIDLTNGEPFGNAVPTFTKTWSSSLDNLEKLSSAAAVGQSLDYNSGLRQGPLAGGGSKEQTPIAGMNNLNNSINATPIVDNSSGSQLPNGFDRGQANNTPFPGYFGGLDLFDYDFLFGNDFA
modifications: GST tag
notes: as for B1

What follows are molecules tested against T1, FHHDbf2-H6Mob1TM9 (assay: Yeast proteome chip assay). Conditions: Table 3; GST fusion proteins on proteome chip, [γ-33P]ATP, chips in duplicate, computer analysis.
Format: biochemical
How it was run: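 GST-tagged yeast proteins (~4,400 strains) spotted on proteome microarrays, probed in duplicate with FHHDbf2-H6Mob1TM9 in DKB plus [γ-33P]ATP; kinase-dead Dbf2(N305A) and kinase-free buffer served as controls. Positives: 3 of 4 spots ≥2 SD above background, fourth ≥1.5 SD.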

Molecule | Slide Signal (after normalization)
B1 | 0.0702
B2 | 0.042
B3 | 0.1294
B4 | 0.0985
B5 | 0.0988

Same assay, conditions: Table 4, the 25 proteins with highest signal relative to protein amount; [γ-33P]ATP, chips in duplicate

Molecule | Slide Signal (after normalization)
B6 | 81.8589
